The DeepSol protein solubility set

Test: soluble on expression in E. coli; label from the status in PepcDB or PDB records

Row | Sequence | soluble on expression in E. coli
1 | MSLAADYTEQDAMRVQAVKTYIDNVLQEGRSQIKTTPLLADGINTTTRKPVEWIYPDGRTATISNFANQQNFLRALTAMSVVTEDQRYQLEAVRITRYFMDNFIADNGLFYWGGHRFVNLDTLELEGPQNKNSVHELKNHYPYYPFLYHVDPHATERYIKAFWQAHVEDWQSLDMGRHGSYSKNYDDKVFHRPIPASLVDQSKLPIMPETKGLTFINAGSDLIYAAYQLDWLAPSANAQGSAAWGQYLMTQYKLAKHPKTGAPVYQFTSPKKREWPPQSDKDTNSKYGDRAARQFGPELGNIAREGNVLFKSNDKSIVFNNALIELHLAEQRNDAAIREQVVDALLNFYRLAYNPENGTIKPIFSDGTSIEGIPLARDGYYGPKGRVFNAHKPKTEEYLLPILRAYRLQADPELWQLAANMTHHYGWGSLGNDAKAKPTLNMQLSSVSPMTLFSAIELYQITQQPEYLEFARAAADKLVEKRFVRGYFLANPRYLNASIDAIEPLALLTLDATLKGKTAQVAPYLSGSGYIHGEFAGKENAYDTNEIYKQTREGHHHHHH | soluble
2 | MSLAAESTYKKLVMLVDDNETDNFIHRRVLEMGNFSKNIIVKNSGKSALEYLEANQSNSELIPEVIFLDINMPIVDGFVFLFEFESFPESIKERCKIIVLSSSDNKKDIDRIVDNDYVVHFITKPLSEDSIAELKKMVEGHHHHHH | soluble
3 | MSLAAKVVPTLQQLAWQQMELTAFLHFGINTFTDSEWGDGKEDPALFNPVELDARQWVRILHEAGFRMVILTAKHHDGFCLWPTATTRHSVASSPWREGKGDVVKEVRAACEEYGMKFGIYLSPWDRNAECYGDSHRYNRFFVSQLTELLTHYGEVHEVWFDGANGEGPNGKRQEYDWETFYDTIRRLQPQAVMAIMGDDVRWVGNERGLGRTTEWSATVLTPGIYSRSKTERNRLGIRENSPDLGSREVLKEAGEIFWYPSEVDVSIRPGWFYHAAEDKKVKSLDKLVDIYFQSVGYNSVLLLNVPPDRRGLIHEADALRLKEWADYLGRAFAHDRVVDSARYAVVQGHAVEEYALESKTHINILMLQEDITKGQRTEAFTVEAWVDGAWQEIGRGTTIGYKRLLRIPAVETDRIRVRIEQCRLPVNLCRVAVYYAEGHHHHHH | soluble
4 | MSLAANMYRVGDYVYFENSSSNPYLIRRIEELNKTANGNVEAKVVCFYRRRDISSTLIALADKHATLSVCYKAGPGADNGEEGEIEEEMENPEMVDLPEKLKHQLRHRELFLSRQLESLPATHIRGKCSVTLLNETESLKSYLEREDFFFYSLVYDPQQKTLLADKGEIRVGNRYQADITDLLKEGEEDGRDQSRLETQVWEAHNPLTDKQIDQFLVVARSVGTFARALDCSSSVRQPSLHMSAAAASRDITLFHAMDTLHKNIYDEGHHHHHH | not soluble
5 | MSLADFTHLLRPSNFDELIGQDHLSKDKAPLRVLCQKGVLGHSFFFGPSGTGKTSIARIIAKTMELPFYEFNATSIKIEQLRAIFEQYKNTLQKPLIFIDEVHRLAKNQQEVLLPVMENNSALIIGASTENPFFSLTSAIRSRSMLFELHHISNEALSRLLRRALDSSDITCSDEALEYLIKSSGGDARSMLKLLEFASNIGTHITLDILKSLRPNALSVGSSEAGVHYDLSSAMIKSIRGSDMDAAIYYLARLIDGGESAEFIARRLVILASEDVGNANPQALTLATSAMTSVSKIGYPEARIILSQAVIYLCASPKEGHHHHHH | not soluble
6 | MSLADIPYGTDYPDAPWIDRDGHVLIDDGGKPTQVHRGQARIAYRLAERYQDKLLHVAGIGWHSWDGRRWAADDRGEAKRAVLAELRQALSDSLNDKELRADVRKCESASGVAGVLDLAAALVPFAATVADLDSDPHLLNVANGTLDLHTLKLRPHAPADRITKICRGAYQSDTESPLWQAFLTRVLPDEGVRGFVQRLAGVGLLGTVREHVLAILIGVGANGKSVFDKAIRYALGDYACTAEPDLFMHRENAHPTGEMDLRGVRWVAVSESEKDRRLAESTIKRLTGGDTIRARKMRQDFVEFTPSHTPLLITNHLPRVPGDDTAIWRRIRVVPFEVVIPADEQDRELDARLQLEADSILSWAVAGWSDYQRIGLSQPDAVLAATSNYREDSDTIKRFIDDECVTSSPVLKATTTHLFEAWQRWRVQEGVPEISRKAFGQSLDTHGYPVTDKARDGRWRAGIAVRGADDFDEGHHHHHH | soluble
7 | MSLADLLDTVKQRGALKIALEGTYPPFNFKDAKQQLTGFDVEIATEIARRMKVKPEFVTAEWSGLLAGLQSGKFDIVVNQVGVTAQRQAVFDFSQPYTYSSAQLIVRKNESRDFKNLADLKGKKLGVGQGSNYADMAKAAAGVQVKTYPGAPEYLQDLATGRLDAALNDSLLIPFAIKQAKLPLKAGAPVGEVAAMAIPFAKGNPQFKSEIDKALGGMKADGTFRKISVKWFGIDVSKAEGHHHHHH | soluble
8 | MSLADVQQFPESIAELVPKFHVLKLPMVTRFRSITEREVMLFEGPDGWAEFSPFTEYGSVESSRWLQAALEFAGLLPTAEVEPSAVGSAAETVGQSVAVNATLPACATSEVGPILARYGPVGTVKAKVAEHGIDSLPEDWDRLREFRRLFPETTLRLDANAGYALPEALAACTEFAEFDLQYFEQPVAAVEDMARLREQLSARELPVVLAADESIRKAEDPVRVAELGAAEVVIVKVQPLGGIAAARSVLEACGLPAVVSSALESSVGLAAGAQLAATLPRTQRSRELLGEHPACGLGTGRLFAEDVVEPAQSLRPVDGQIPVTRIVPDPQRLETLAVDPGRFDWWEKRLQECWTALLSRRSEGHHHHHH | not soluble
9 | MSLAELAAVPAAPDDRLYSADNTQSSGETIRHLTWSGYEAANVQRPFEKKFDCQTGVDLFTSNLDAFNRLDDGAWREFDHATFDMAWLPDLAEAGLIRPLDYEAWKPYTFDKYTDLFQRENGYEFAFLDEDYNFDADGQLYGVPQRFGWASFALNTDVVSESDARSYDAAWADEYDVGVYDLPFWGVQIVMLREGIDPYATHTDAEVERIREATVALFENAAGVYADVGSLNTALAAGDIDIAFVSGNWINGSLRRGGRFEYEARVPDEGGVIWVETTTMLKGSHPSVSTNYLAYMQHGITAKNLMWPTVGGTNVVPHQSSIDRLNRRQRTVLRIDDLQDIIDKSRFYTGEGHHHHHH | soluble
10 | MSLAIRQHVGALFTDLYEVTMAQAYWAERMSGTAVFEIFFRKLPPGRSYIMAAGLADVVEFLEAFRFDEQDLRYLRGLGQFSDEFLRWLAGVRFTGDVWAAPEGTVIFPNEPAVQLIAPIIEAQLVETFVLNQIHLQSVLASKAARVVAAARGRPVVDFGARRAHGTDAACKVARTSYLAGAAGTSNLLAARQYGIPTFGTMAHSFVQAFDSEVAAFEAFARLYPATMLLVDTYDTLRGVDHVIELAKRLGNRFDVRAVRLDSGDLDELSKATRARLDTAGLEQVEIFASSGLDENRIAALLAARCPIDGFGVGTQLVVAQDAPALDMAYKLVAYDGSGRTKFSSGKVIYPGRKQVFRKLEHGVFCGDTLGEHGENLPGDPLLVPIMTNGRRIRQHAPTLDGARDWARQQIDALPPELRSLEDTGYSYPVAVSDRIVGELARLRHADTAEAHPGSNVVGAKAKRPEGHHHHHH | not soluble
11 | MSLAIRVVCISDTHDLKVDIPRGDILIHAGDLTDGGTVSDIQKQLDWLKEQPHPIKVVVAGNHDSWFDQKSRPEEDARSGAKPDMDGLIYLESGLTVQKVKGRTVNIFGVPDIPEIGPKEFAFQYATDNHPWLSKVPPQTDILVTHCPPKHHLDLGLGDSNLLREVWRVKPRLHVFGHVHCAYGKESVFFDNFQQTYERIMSRPRRGPILDFIPNEAWLDEGHHHHHH | not soluble
12 | MSLAKIVNVRPVLLSTPYGFEGCAENALHLPNGIRGCSMVEITLDNGVKGLGEGYLGVFAPDVFTSIARLVGTAITGDDISNGYGAVLAKAKTVTAYWSLQGAAQHVISAIEIALVDALSRVREIPAVELFGGKKVESIAMYGSGGDSLHPQYMAQELEQLAQRGIQTIKIRARHHQAAKTIWTIEAGRQYGIRVAVDMTQNLSIEGQTAEQVQAFCDLIQRETGEELVFVEECLGLDKLTQLPLLALQEGIAVAGGEIVTTKEELFDRIDANYYNVVQPDASVLGGIGDTIAVCEYAKQRSVNPVVHSWGGPVAMMANYVAAFATGCSLIEYPMPHFELRNVMCNLESRIHDGHFHLGDDIGLGVTLTDDIEGQFPHTNDALYHCFPMEDGLQQLEDSHRHWVKAEGHHHHHH | soluble
13 | MSLAQIDFRKKINWHRRYRSPQGVKTEHEILRIFESDRGRIINSPAIRRLQQKTQVFPLERNAAVRTRLTHSMEVQQVGRYIAKEILSRLKELKLLEAYGLDELTGPFESIVEMSCLMHDIGNPPFGHFGEAAINDWFRQRLHPEDAESQPLTDDRCSVAALRLRDGEEPLNELRRKIRQDLCHFEGNAQGIRLVHTLMRMNLTWAQVGGILKYTRPAWWRGETPETHHYLMKKPGYYLSEEAYIARLRKELNLALYSRFPLTWIMEAADDISYCVADLEDAVEKRIFTVEQLYHHLHEAWGQHEKGSLFSLVVENAWEKSRSNSLSRSTEDQFFMYLRVNTLNKLVPYAAQRFIDNLPAIFAGTFNHALLEDASECSDLLKLYKNVAVKHVFSHPDVERLELQGYRVISGLLEIYRPLLSLSLSDFTELVEKERVKRFPIESRLFHKLSTRHRLAYVEAVSKLPSDSPEFPLWEYYYRCRLLQDYISGMTDLYAWDEYRRLMAVEQEGHHHHHH | soluble
14 | MSLAQINVAILGAGRIAQSMAETLVKMAADDRYRDLVAPYAVAARDGERAAAFAAKYGFPVSYGSYEELVADPNVNLVYIATPHNFHAEQAILCMRAGKGVLVEKAFGANTQQAREILDVSDETGMLCTEAIWTRYMPSRGMIDDIIASGVIGEVQAIDANLCYPTTAKARITDPALAGGALLDVGVYPINFIDMIMHNAPIARVESSMQPYETGVDAHNSMTFYYQNGVMATAQSSILCHSDRMGAVWGTEGYLTCQNINNVEAIDMFDGSHAVTAHYDVPEQLTGYEYEVASTAQAMLDGRTECDEMPHSDTLRIMECMDSLRADWGLKYPFEAEGHHHHHH | soluble
15 | MSLAQIVNTERHSRLLPAPSSFEEGVVKFGDKEINIGGPLPTLAKDEKLVRVTHSLCPACYRLLPATIFEKEGKLFIRKICPEHGEFEDLYYADSSLYYKFDYWEYEGKGPKVPYVDLKSPCPYNCGLCPMHHQHSALVNLVITNRCDLSCWYCFFYAEKAGYVYEPTLEQIKFMVDQLKKQDITLVIQVTGGEPTLREDIIEIIKMLRENGVKHIQLNSWGGTFAKLYLEDPDKAIKYARALREAGVNTVYMSFDGTTRKTNPKNHWEIPYTLEVFRRAGMTSVVLVPTVIKTVNDNDLGNIVKFAAYNMDVVRSVNFQPVSLTGMMKRNMRAKFRITIPEVIKNIEEQTDGEITKDSWYPIGTSVVFSRLVEALTGKEQFEMANHPSCGAGTYVYVEWRNHEPHFIPISKFIDLEGLLEYLKEKEEELREGANKVWVASKVLYSIRKFIDKEQGPKDFDVYKMLYNIIIHHNYEALGEWHYRTLFLGSMHFMDLYNYDVQRVMRCDIHYVVPDGRVIPFCTYNVLNDLYRDKVLREYQIPLDKWTKEHGENSLGDAIKYKRIASTLENSEIYKNTYKSFQQMEGHHHHHH | not soluble
16 | MSLAQIVTSTKSCTVNPLRMSQPLGAALAFMGLRNCMPLLHGSQGCTSFGLVLFVRHFRESIPLQTTAMSEVATVLGGFENVEQAIVNIVGRTKPDVIGICTTGVTEIKGDDLDGYIKMVRANHPELANVALVPVSTPDFKGAFEDGFAATVTRIVETLVETPAEGAAPDADRINVLAGSHLTPGDIDELRDIIEAFGLVPTFLPDISGSLDGHVPDDFTPTTHGGVSVAEVVAMGGAGHTLAFGEHMRKAAAALEAKAGVPFTLLSRVTGLAAADELMATLAKISGRPVPPKYRRQRSQLVDAMLDGHFYFGGKSVAIGAEPDMLLNIGGWLADMGCTVSAAVTTTTSPSLAQVPSDEVLIGDLEDLERRAEDCDLLVTHSHGRQAAERLSVPLFRMGLPMFDRLGAVHQVAVGYRGTRDLIFAIGNLFIANIKEPDVNSWRSASACPDQTDAEGHHHHHH | soluble
